Test results published in patent US20060257938A1, “Method of screening for drugs that block ligand binding to a lipid binding protein” (priority 2005, published 2006).
Values joined by “and” are separate entries in the source; they are usually repeats but may differ in a detail not shown here. Identical values can stand only once.

What was measured:
Type in all cases: binding
Details in all cases: response relative to ADIFAB2
[1] = Probe fluorescence ratio response to arachidonic acid relative to ADIFAB2
Summary of the method: (§1)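 Fluorescently labeled rat intestinal FABP variants were read at two emission wavelengths, near the unbound maximum (about 420 to 480 nm) and the FFA-bound maximum (about 495 to 580 nm). R = Fλ1/Fλ2 after subtracting probe-free intensity; ΔR = R+agent − R0, normalized to ADIFAB2 (rI-FABP-L72A).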

[2] = Probe fluorescence ratio response to linolenic acid relative to ADIFAB2
Summary of the method: as §1

[3] = Probe fluorescence ratio response to linoleic acid relative to ADIFAB2
Summary of the method: as §1

[4] = Probe fluorescence ratio response to oleic acid relative to ADIFAB2
Summary of the method: as §1

[5] = Probe fluorescence ratio response to palmitic acid relative to ADIFAB2
Summary of the method: as §1

B1: 73E, 72A (protein, listed as Rattus norvegicus)
chain: AFDGTWKVDRNENYEKFMEKMGINVVKRKLGAHDNLKLTITQEGNKFTVKESSNFRNIDVVFELGVDFAYSAEDGTELTGTWTMEGNKLVGKFKRVDNGKELIAVREISGNELIQTYTYEGVEAKRIFKKE
modifications: PEPTIDE (1)...(131) wild-type rat intestinal fatty acid binding protein
- DR/DR AA ([1]; Arachidonic acid): 0.15
- DR/DR LNA [2]: 0.14
- DR/DR LA [3]: 0.19
- DR/DR OA [4]: 0.14
- DR/DR PA [5]: 0.13

B2: 73F, 72A (protein, listed as Rattus norvegicus)
chain: AFDGTWKVDRNENYEKFMEKMGINVVKRKLGAHDNLKLTITQEGNKFTVKESSNFRNIDVVFELGVDFAYSAFDGTELTGTWTMEGNKLVGKFKRVDNGKELIAVREISGNELIQTYTYEGVEAKRIFKKE
modifications: PEPTIDE (1)...(131) wild-type rat intestinal fatty acid binding protein
- DR/DR AA ([1]; Arachidonic acid): 1.21
- DR/DR AA ([1]; arachidonic acid): 1.208
- DR/DR LNA [2]: 1.86 and 1.861
- DR/DR LA [3]: 1.23 and 1.234
- DR/DR OA [4]: 0.73 and 0.728
- DR/DR PA [5]: 1.13 and 1.128

B3: 73G, 72A (protein, listed as Rattus norvegicus)
chain: AFDGTWKVDRNENYEKFMEKMGINVVKRKLGAHDNLKLTITQEGNKFTVKESSNFRNIDVVFELGVDFAYSAGDGTELTGTWTMEGNKLVGKFKRVDNGKELIAVREISGNELIQTYTYEGVEAKRIFKKE
modifications: PEPTIDE (1)...(131) wild-type rat intestinal fatty acid binding protein
- DR/DR AA ([1]; Arachidonic acid): 0.46
- DR/DR LNA [2]: 0.53
- DR/DR LA [3]: 0.56
- DR/DR OA [4]: 0.52
- DR/DR PA [5]: 0.41

B4: 73H, 72A (protein, listed as Rattus norvegicus)
chain: AFDGTWKVDRNENYEKFMEKMGINVVKRKLGAHDNLKLTITQEGNKFTVKESSNFRNIDVVFELGVDFAYSAHDGTELTGTWTMEGNKLVGKFKRVDNGKELIAVREISGNELIQTYTYEGVEAKRIFKKE
modifications: PEPTIDE (1)...(131) wild-type rat intestinal fatty acid binding protein
- DR/DR AA ([1]; Arachidonic acid): 0.15
- DR/DR LNA [2]: 0.25
- DR/DR LA [3]: 0.18
- DR/DR OA [4]: 0.13
- DR/DR PA [5]: 0.16

B5: 104F3, 72A (protein, listed as Rattus norvegicus)
chain: AFDGTWKVDRNENYEKFMEKMGINVVKRKLGAHDNLKLTITQEGNKFTVKESSNFRNIDVVFELGVDFAYSAADGTELTGTWTMEGNKLVGKFKRVDNGKELIFVREISGNELIQTYTYEGVEAKRIFKKE
modifications: PEPTIDE (1)...(131) wild-type rat intestinal fatty acid binding protein
- DR/DR AA ([1]; arachidonic acid): 0.71
- DR/DR LNA [2]: 0.45
- DR/DR LA [3]: 0.50
- DR/DR OA [4]: 0.47
- DR/DR PA [5]: 0.25

B6: 73K, 72A (protein, listed as Rattus norvegicus)
chain: AFDGTWKVDRNENYEKFMEKMGINVVKRKLGAHDNLKLTITQEGNKFTVKESSNFRNIDVVFELGVDFAYSAKDGTELTGTWTMEGNKLVGKFKRVDNGKELIAVREISGNELIQTYTYEGVEAKRIFKKE
modifications: PEPTIDE (1)...(131) wild-type rat intestinal fatty acid binding protein
- DR/DR AA ([1]; Arachidonic acid): 0.30
- DR/DR LNA [2]: 0.28
- DR/DR LA [3]: 0.29
- DR/DR OA [4]: 0.28
- DR/DR PA [5]: 0.15

B7: 73L, 72A (protein, listed as Rattus norvegicus)
chain: AFDGTWKVDRNENYEKFMEKMGINVVKRKLGAHDNLKLTITQEGNKFTVKESSNFRNIDVVFELGVDFAYSALDGTELTGTWTMEGNKLVGKFKRVDNGKELIAVREISGNELIQTYTYEGVEAKRIFKKE
modifications: PEPTIDE (1)...(131) wild-type rat intestinal fatty acid binding protein
- DR/DR AA ([1]; Arachidonic acid): 0.73
- DR/DR AA ([1]; arachidonic acid): 0.733
- DR/DR LNA [2]: 0.34 and 0.338
- DR/DR LA [3]: 0.33 and 0.325
- DR/DR OA [4]: 0.38
- DR/DR PA [5]: 0.25 and 0.251

B8: 73N, 72A (protein, listed as Rattus norvegicus)
chain: AFDGTWKVDRNENYEKFMEKMGINVVKRKLGAHDNLKLTITQEGNKFTVKESSNFRNIDVVFELGVDFAYSANDGTELTGTWTMEGNKLVGKFKRVDNGKELIAVREISGNELIQTYTYEGVEAKRIFKKE
modifications: PEPTIDE (1)...(131) wild-type rat intestinal fatty acid binding protein
- DR/DR AA ([1]; Arachidonic acid): 0.48
- DR/DR LNA [2]: 0.47
- DR/DR LA [3]: 0.43
- DR/DR OA [4]: 0.41
- DR/DR PA [5]: 0.39

B9: 73P, 72A (protein, listed as Rattus norvegicus)
chain: AFDGTWKVDRNENYEKFMEKMGINVVKRKLGAHDNLKLTITQEGNKFTVKESSNFRNIDVVFELGVDFAYSAPDGTELTGTWTMEGNKLVGKFKRVDNGKELIAVREISGNELIQTYTYEGVEAKRIFKKE
modifications: PEPTIDE (1)...(131) wild-type rat intestinal fatty acid binding protein
- DR/DR AA ([1]; Arachidonic acid): 0.42
- DR/DR LNA [2]: 0.41
- DR/DR LA [3]: 0.30
- DR/DR OA [4]: 0.30
- DR/DR PA [5]: 0.26

B10: 73Q, 72A (protein, listed as Rattus norvegicus)
chain: AFDGTWKVDRNENYEKFMEKMGINVVKRKLGAHDNLKLTITQEGNKFTVKESSNFRNIDVVFELGVDFAYSAQDGTELTGTWTMEGNKLVGKFKRVDNGKELIAVREISGNELIQTYTYEGVEAKRIFKKE
modifications: PEPTIDE (1)...(131) wild-type rat intestinal fatty acid binding protein
- DR/DR AA ([1]; Arachidonic acid): 1.36
- DR/DR LNA [2]: 1.31
- DR/DR LA [3]: 1.39
- DR/DR OA [4]: 1.28
- DR/DR PA [5]: 1.19

B11: 73R, 72A (protein, listed as Rattus norvegicus)
chain: AFDGTWKVDRNENYEKFMEKMGINVVKRKLGAHDNLKLTITQEGNKFTVKESSNFRNIDVVFELGVDFAYSARDGTELTGTWTMEGNKLVGKFKRVDNGKELIAVREISGNELIQTYTYEGVEAKRIFKKE
modifications: PEPTIDE (1)...(131) wild-type rat intestinal fatty acid binding protein
- DR/DR AA ([1]; Arachidonic acid): 0.40
- DR/DR LNA [2]: 0.33
- DR/DR LA [3]: 0.36
- DR/DR OA [4]: 0.27
- DR/DR PA [5]: 0.20

B12: 73S, 72A (protein, listed as Rattus norvegicus)
chain: AFDGTWKVDRNENYEKFMEKMGINVVKRKLGAHDNLKLTITQEGNKFTVKESSNFRNIDVVFELGVDFAYSASDGTELTGTWTMEGNKLVGKFKRVDNGKELIAVREISGNELIQTYTYEGVEAKRIFKKE
modifications: PEPTIDE (1)...(131) wild-type rat intestinal fatty acid binding protein
- DR/DR AA ([1]; Arachidonic acid): 1.01
- DR/DR LNA [2]: 1.08
- DR/DR LA [3]: 1.05
- DR/DR OA [4]: 0.96
- DR/DR PA [5]: 0.99

B13: 73T, 72A (protein, listed as Rattus norvegicus)
chain: AFDGTWKVDRNENYEKFMEKMGINVVKRKLGAHDNLKLTITQEGNKFTVKESSNFRNIDVVFELGVDFAYSATDGTELTGTWTMEGNKLVGKFKRVDNGKELIAVREISGNELIQTYTYEGVEAKRIFKKE
modifications: PEPTIDE (1)...(131) wild-type rat intestinal fatty acid binding protein
- DR/DR AA ([1]; Arachidonic acid): 0.87
- DR/DR AA ([1]; arachidonic acid): 0.872
- DR/DR LNA [2]: 0.77 and 0.765
- DR/DR LA [3]: 0.77 and 0.768
- DR/DR OA [4]: 0.78 and 0.778
- DR/DR PA [5]: 0.62 and 0.621

B14: 73V, 72A (protein, listed as Rattus norvegicus)
chain: AFDGTWKVDRNENYEKFMEKMGINVVKRKLGAHDNLKLTITQEGNKFTVKESSNFRNIDVVFELGVDFAYSAVDGTELTGTWTMEGNKLVGKFKRVDNGKELIAVREISGNELIQTYTYEGVEAKRIFKKE
modifications: PEPTIDE (1)...(131) wild-type rat intestinal fatty acid binding protein
- DR/DR AA ([1]; Arachidonic acid): 0.98
- DR/DR AA ([1]; arachidonic acid): 0.976
- DR/DR LNA [2]: 0.50 and 0.496
- DR/DR LA [3]: 0.40 and 0.396
- DR/DR OA [4]: 0.60 and 0.603
- DR/DR PA [5]: 0.48 and 0.475

B15: 73W, 72A (protein, listed as Rattus norvegicus)
chain: AFDGTWKVDRNENYEKFMEKMGINVVKRKLGAHDNLKLTITQEGNKFTVKESSNFRNIDVVFELGVDFAYSAWDGTELTGTWTMEGNKLVGKFKRVDNGKELIAVREISGNELIQTYTYEGVEAKRIFKKE
modifications: PEPTIDE (1)...(131) wild-type rat intestinal fatty acid binding protein
- DR/DR AA ([1]; Arachidonic acid): 1.77
- DR/DR LNA [2]: 1.93
- DR/DR LA [3]: 1.89
- DR/DR OA [4]: 1.66
- DR/DR PA [5]: 1.05

B16: 74A, 72A (protein, listed as Rattus norvegicus)
chain: AFDGTWKVDRNENYEKFMEKMGINVVKRKLGAHDNLKLTITQEGNKFTVKESSNFRNIDVVFELGVDFAYSAAAGTELTGTWTMEGNKLVGKFKRVDNGKELIAVREISGNELIQTYTYEGVEAKRIFKKE
modifications: PEPTIDE (1)...(131) wild-type rat intestinal fatty acid binding protein
- DR/DR AA ([1]; Arachidonic acid): 1.42
- DR/DR LNA [2]: 1.42
- DR/DR LA [3]: 1.34
- DR/DR OA [4]: 1.34
- DR/DR PA [5]: 1.27

B17: 74C, 72A (protein, listed as Rattus norvegicus)
chain: AFDGTWKVDRNENYEKFMEKMGINVVKRKLGAHDNLKLTITQEGNKFTVKESSNFRNIDVVFELGVDFAYSAACGTELTGTWTMEGNKLVGKFKRVDNGKELIAVREISGNELIQTYTYEGVEAKRIFKKE
modifications: PEPTIDE (1)...(131) wild-type rat intestinal fatty acid binding protein
- DR/DR AA ([1]; Arachidonic acid): 0.83
- DR/DR LNA [2]: 0.74
- DR/DR LA [3]: 0.71
- DR/DR OA [4]: 0.56
- DR/DR PA [5]: 0.29
